Values of other authors as cited in publication PMC5874815.

Molecular target: EGFR (Homo sapiens) (UniProt P00533)

Kd: 2 nM
Substance: EGF (from UniProt P01133)
